Consider one protein from PMC7092869 (Biochemical and Biophysical Research Communications, 2018).

The series deals with the molecule itself. The series can be described thus: SEC + AUC.

B1: HCoV-229E fusion core (FC1), HR1-linker-HR2 single chain (domain or fragment)
chain: ENQKILAASFNKAMTNIVDAFTGVNDAITQTSQALQTVATALNKIQDVVNQQGNSLNHLTSQLRQNFQLVPRGSGGSGGSGGLEVLFQGPDLVVEQYNQTILNLTSEISTLENKSAELNYTVQKLQTLIDNINSTLVDLKWL
The term stoichiometry N denotes a count of units in the complex or per binding partner. On to B1, for which the “stoichiometry N” value worked out at 3.
